# ± gives the uncertainty stated by the source.
# Experiment: self-splicing fitness, log relative to wild type (ln ratio); higher = more splicing; Tetrahymena group I intron in knt gene, E. coli kanamycin selection, DiMSum; sequences stand for … in CUCUCU…GGAGGGAAAAGUUAUCAGGCAUGCACCUGGUAGCUAGUCUUUAAACCAAUAGAUUGCAUCGGUUUAAAAGGCAAGACCGUCAAAUUGCGGGAAAGGGGUCAACAGCCGUUCAGUACCAAGUCUCAGGGGAAACUUUGAGAUGGCCUUGCAAAGGGUAUGGUAAUAAGCUGACGGACAUGGUCCUAACCACGCAGCCAAGUCCUAAGUCAACAGAUCUUCUGUUGAUAUGGAUGCAGUUCACAGACUAAAUGUCGGUCGGGGAAGAUGUAUUCUUCUCAUAAGAUAUAGUCGGACCUCUCCUUAAUGGGAGCUAGCGGAUGAAGUGAUGCAACACUGGAGCCGCUGGGAACUAAUUUGUAUGCGAAAGUAUAUUGAUUAGUUUUGGAGUACUCGUGGUCG
# How it was run: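 A randomised library covering all eight P1ex-region intron nucleotides was built with the intron in the knt kanamycin-resistance gene on pET-22b(+) and held in E. coli BL21(DE3). Cells were grown overnight at 37°C or 30°C on LB agar, with or without 25 μg/mL kanamycin, plus 100 μg/mL carbenicillin, 50 μM IPTG and 0.2% rhamnose, and pooled colonies were amplicon-sequenced on an Illumina HiSeq 2500. DiMSum fitness is the error-weighted combination of wild-type-normalised replicate fold changes, kanamycin versus none.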
Sequence,self-splicing fitness (ln) (30 °C),self-splicing fitness (ln) (37 °C)
GGCGAGCAAUAUUACGACCU,-0.951 ± 0.19,-0.976 ± 0.39
AAGCAGCAAUAUUACGCGCA,-1.73 ± 0.14,-0.501 ± 0.2
AAACAGCAAUAUUACGCCAA,-3.08 ± 0.25,-1.44 ± 0.15
AAUCAGCAAUAUUACGUGAU,-0.823 ± 0.048,-0.268 ± 0.067
UCGGAGCAAUAUUACGCGCA,-0.975 ± 0.23,–
CAUUAGCAAUAUUACGCGCG,0.0331 ± 0.12,0.0206 ± 0.13
CCGCAGCAAUAUUACGGGCU,-3.56 ± 0.18,-3.05 ± 0.22
ACUCAGCAAUAUUACGGUUC,-2.68 ± 0.14,-2.33 ± 0.14
CACAAGCAAUAUUACGGCUG,-1.54 ± 0.072,-0.213 ± 0.087
GCCGAGCAAUAUUACGCUUU,-1.61 ± 0.082,-0.235 ± 0.093
UCACAGCAAUAUUACGCCAG,-1.6 ± 0.15,-0.668 ± 0.25
GAGGAGCAAUAUUACGUACG,-2.21 ± 0.19,–
UUGUAGCAAUAUUACGCGUU,-2.56 ± 0.23,-1.64 ± 0.33
GCGUAGCAAUAUUACGGAGA,-2.63 ± 0.21,-1.87 ± 0.23
ACCCAGCAAUAUUACGAAGG,-1.71 ± 0.071,-0.892 ± 0.1
GCACAGCAAUAUUACGGGAA,-1.47 ± 0.15,-1.42 ± 0.13
GAAUAGCAAUAUUACGAAAU,-1.3 ± 0.1,-1.6 ± 0.13
ACGUAGCAAUAUUACGCAAU,-2.95 ± 0.17,-1.53 ± 0.22
ACCAAGCAAUAUUACGCCUG,-2.05 ± 0.18,-2.31 ± 0.25
AUACAGCAAUAUUACGCAUA,-1.54 ± 0.12,-0.743 ± 0.13
UAUAAGCAAUAUUACGCAGA,-0.745 ± 0.45,-1.25 ± 0.18
CCUCAGCAAUAUUACGGUCG,-0.693 ± 0.069,-0.505 ± 0.089
AUACAGCAAUAUUACGACCG,-1.22 ± 0.096,-0.49 ± 0.1
UAAUAGCAAUAUUACGCAUA,-1.13 ± 0.18,-0.681 ± 0.15
UACUAGCAAUAUUACGUCAG,-1.72 ± 0.2,-1.43 ± 0.21

Sequence,self-splicing fitness (ln) (30 °C),self-splicing fitness (ln) (37 °C)
UGCCAGCAAUAUUACGAACC,-3.55 ± 0.43,-2.29 ± 0.5
CGCGAGCAAUAUUACGUCGG,-1.99 ± 0.086,-1.16 ± 0.093
CGGAAGCAAUAUUACGUAAG,-0.619 ± 0.072,0.241 ± 0.1
GAAAAGCAAUAUUACGUCUU,-0.419 ± 0.068,0.391 ± 0.086
UCCCAGCAAUAUUACGCCUA,-1.41 ± 0.078,-1.34 ± 0.08
UGUGAGCAAUAUUACGCCCG,-0.83 ± 0.47,-1.17 ± 0.42
AUUCAGCAAUAUUACGACCC,0.119 ± 0.42,–
AGAUAGCAAUAUUACGCAUG,-1.58 ± 0.14,-0.884 ± 0.14
CAAGAGCAAUAUUACGAUGU,-3.88 ± 0.23,-2.73 ± 0.25
CUAAAGCAAUAUUACGGAUU,-4.39 ± 0.22,-2.62 ± 0.23
ACUUAGCAAUAUUACGCUGU,-3.85 ± 0.2,-2.19 ± 0.17
GGGUAGCAAUAUUACGAUCC,-2.2 ± 0.37,-1.47 ± 0.5
UCACAGCAAUAUUACGGGAC,-2.77 ± 0.21,-1.76 ± 0.18
AGUUAGCAAUAUUACGCCCA,-1.44 ± 0.32,-0.867 ± 0.33
CGAAAGCAAUAUUACGAAAG,-0.96 ± 0.073,-0.475 ± 0.11
CUCCAGCAAUAUUACGGUGG,-3.79 ± 0.19,-2.42 ± 0.18
UUGGAGCAAUAUUACGAUUC,–,-1.85 ± 0.32
CGCCAGCAAUAUUACGGCGC,-3 ± 0.17,-2.23 ± 0.22
UCCAAGCAAUAUUACGGCGU,-1.95 ± 0.091,-0.529 ± 0.1
AUCAAGCAAUAUUACGCCUG,-1.61 ± 0.12,-0.797 ± 0.16
UCAUAGCAAUAUUACGCAGU,-4.03 ± 0.36,-3.4 ± 0.31
GGCUAGCAAUAUUACGGGGC,-3.67 ± 0.47,-2.08 ± 0.28
CGCCAGCAAUAUUACGGCUC,-0.72 ± 0.22,-0.0823 ± 0.23
GGACAGCAAUAUUACGGACG,-0.636 ± 0.12,-0.327 ± 0.12
